T1: Nsp2Cas9 (Neisseria sp. WF04, UniProt A0A4Y9GBC9)
T1 sequence: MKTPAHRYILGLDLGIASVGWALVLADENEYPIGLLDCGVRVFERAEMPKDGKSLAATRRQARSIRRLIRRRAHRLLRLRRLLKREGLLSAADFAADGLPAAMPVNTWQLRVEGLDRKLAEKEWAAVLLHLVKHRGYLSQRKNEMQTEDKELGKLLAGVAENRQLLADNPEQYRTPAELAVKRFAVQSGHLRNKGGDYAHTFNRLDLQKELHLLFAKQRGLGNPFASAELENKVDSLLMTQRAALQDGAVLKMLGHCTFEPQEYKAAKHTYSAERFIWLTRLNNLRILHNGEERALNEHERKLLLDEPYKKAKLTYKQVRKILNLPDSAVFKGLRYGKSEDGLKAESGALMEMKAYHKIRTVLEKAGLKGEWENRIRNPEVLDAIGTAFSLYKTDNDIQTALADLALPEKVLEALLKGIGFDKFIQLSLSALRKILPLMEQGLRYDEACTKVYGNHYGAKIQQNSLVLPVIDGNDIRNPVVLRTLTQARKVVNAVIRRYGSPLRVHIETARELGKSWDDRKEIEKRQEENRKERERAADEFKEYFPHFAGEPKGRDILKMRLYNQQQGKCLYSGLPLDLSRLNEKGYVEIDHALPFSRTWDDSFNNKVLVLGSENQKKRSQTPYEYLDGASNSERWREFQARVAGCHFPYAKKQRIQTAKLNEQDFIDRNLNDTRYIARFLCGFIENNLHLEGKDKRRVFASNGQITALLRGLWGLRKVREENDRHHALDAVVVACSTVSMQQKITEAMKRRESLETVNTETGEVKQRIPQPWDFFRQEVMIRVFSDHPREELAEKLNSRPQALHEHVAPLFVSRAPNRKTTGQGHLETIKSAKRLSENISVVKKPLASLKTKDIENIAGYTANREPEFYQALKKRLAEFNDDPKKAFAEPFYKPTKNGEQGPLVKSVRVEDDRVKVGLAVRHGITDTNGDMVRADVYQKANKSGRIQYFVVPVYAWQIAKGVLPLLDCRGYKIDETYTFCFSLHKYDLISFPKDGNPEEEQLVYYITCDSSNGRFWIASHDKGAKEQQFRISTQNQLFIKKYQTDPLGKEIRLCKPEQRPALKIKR


Molecular target: T1, Nsp2Cas9
Assay: HEK293T cells
Conditions: tags: NLS and HA tags, kept

Row | Binder | indel frequency [% indels]
1 | EMX1 E1 (mixed) RNA: GAAUGUGGUGCUUGAGAAGUGGAGUUGUAGCUCCCUUUCUCAUUUCGGAAACGAAAUGAGAACCGUUGCUACAAUAAGGCCGUCUGAAAAGAUGUGCCGCAACGCUCUGCCCCUUAAAGCUUCUGCUUUAAGGGGCAUCGUUUAUUUUUUU DNA 1: AATGTGGTGCTTGAGAAGTGGATGGCCCAA DNA 2: TTGGGCCATCCACTTCTCAAGCACCACATT | 7.8
2 | GRIN2B G5 (mixed) RNA: GUUUACAAUGAGAGACAAUACUGGUUGUAGCUCCCUUUCUCAUUUCGGAAACGAAAUGAGAACCGUUGCUACAAUAAGGCCGUCUGAAAAGAUGUGCCGCAACGCUCUGCCCCUUAAAGCUUCUGCUUUAAGGGGCAUCGUUUAUUUUUUU DNA 1: TTTACAATGAGAGACAATACTGGCATCCAA DNA 2: TTGGATGCCAGTATTGTCTCTCATTGTAAA | 18.4
3 | AAVS1 A7 (mixed) RNA: GUCUGUCCCCUCCACCCCACAGUGUUGUAGCUCCCUUUCUCAUUUCGGAAACGAAAUGAGAACCGUUGCUACAAUAAGGCCGUCUGAAAAGAUGUGCCGCAACGCUCUGCCCCUUAAAGCUUCUGCUUUAAGGGGCAUCGUUUAUUUUUUU DNA 1: TCTGTCCCCTCCACCCCACAGTGGGGCC DNA 2: GGCCCCACTGTGGGGTGGAGGGGACAGA | 17.4
4 | VEGFA V17 (mixed) RNA: GCCGGGACCCUCCACUCCUCCUGGUUGUAGCUCCCUUUCUCAUUUCGGAAACGAAAUGAGAACCGUUGCUACAAUAAGGCCGUCUGAAAAGAUGUGCCGCAACGCUCUGCCCCUUAAAGCUUCUGCUUUAAGGGGCAUCGUUUAUUUUUUU DNA 1: CCGGGACCCTCCACTCCTCCTGGGCCCCAA DNA 2: TTGGGGCCCAGGAGGAGTGGAGGGTCCCGG | 11.6
5 | AAVS1 A33 (mixed) RNA: GUGAGAAUGGUGCGUCCUAGGUGGUUGUAGCUCCCUUUCUCAUUUCGGAAACGAAAUGAGAACCGUUGCUACAAUAAGGCCGUCUGAAAAGAUGUGCCGCAACGCUCUGCCCCUUAAAGCUUCUGCUUUAAGGGGCAUCGUUUAUUUUUUU DNA 1: TGAGAATGGTGCGTCCTAGGTGTTCACCAG DNA 2: CTGGTGAACACCTAGGACGCACCATTCTCA | 17.1
6 | AAVS1 A30 (mixed) RNA: GAGGGAGGAGAGAUGCCCGGAGAGUUGUAGCUCCCUUUCUCAUUUCGGAAACGAAAUGAGAACCGUUGCUACAAUAAGGCCGUCUGAAAAGAUGUGCCGCAACGCUCUGCCCCUUAAAGCUUCUGCUUUAAGGGGCAUCGUUUAUUUUUUU DNA 1: AGGGAGGAGAGATGCCCGGAGAGGACCCAG DNA 2: CTGGGTCCTCTCCGGGCATCTCTCCTCCCT | 12.9
7 | VEGFA V36 (mixed) RNA: GAGGAAACGACCUGGGACCACCUGUUGUAGCUCCCUUUCUCAUUUCGGAAACGAAAUGAGAACCGUUGCUACAAUAAGGCCGUCUGAAAAGAUGUGCCGCAACGCUCUGCCCCUUAAAGCUUCUGCUUUAAGGGGCAUCGUUUAUUUUUUU DNA 1: AGGAAACGACCTGGGACCACCTGTTCCCAA DNA 2: TTGGGAACAGGTGGTCCCAGGTCGTTTCCT | 14.6
8 | AAVS1 A41 (mixed) RNA: GAGGACUGCAUGGGUCAGCACAGGUUGUAGCUCCCUUUCUCAUUUCGGAAACGAAAUGAGAACCGUUGCUACAAUAAGGCCGUCUGAAAAGAUGUGCCGCAACGCUCUGCCCCUUAAAGCUUCUGCUUUAAGGGGCAUCGUUUAUUUUUUU DNA 1: AGGACTGCATGGGTCAGCACAGGCTGCCAA DNA 2: TTGGCAGCCTGTGCTGACCCATGCAGTCCT | 10.8
9 | VEGFA V21 (mixed) RNA: GUCUCGAGGUAGCCCCAGCCCGGGUUGUAGCUCCCUUUCUCAUUUCGGAAACGAAAUGAGAACCGUUGCUACAAUAAGGCCGUCUGAAAAGAUGUGCCGCAACGCUCUGCCCCUUAAAGCUUCUGCUUUAAGGGGCAUCGUUUAUUUUUUU DNA 1: TCTCGAGGTAGCCCCAGCCCGGGGATCCAG DNA 2: CTGGATCCCCGGGCTGGGGCTACCTCGAGA | 19
10 | GRIN2B G1 (mixed) RNA: GCCCAUCAAGCUGGGCUCCAAGGGUUGUAGCUCCCUUUCUCAUUUCGGAAACGAAAUGAGAACCGUUGCUACAAUAAGGCCGUCUGAAAAGAUGUGCCGCAACGCUCUGCCCCUUAAAGCUUCUGCUUUAAGGGGCAUCGUUUAUUUUUUU DNA 1: CCCATCAAGCTGGGCTCCAAGGAGGGCCAA DNA 2: TTGGCCCTCCTTGGAGCCCAGCTTGATGGG | 18.6
11 | AAVS1 A4 (mixed) RNA: GCUCUGACCUGCAUUCUCUCCCCGUUGUAGCUCCCUUUCUCAUUUCGGAAACGAAAUGAGAACCGUUGCUACAAUAAGGCCGUCUGAAAAGAUGUGCCGCAACGCUCUGCCCCUUAAAGCUUCUGCUUUAAGGGGCAUCGUUUAUUUUUUU DNA 1: CTCTGACCTGCATTCTCTCCCCTGGGCC DNA 2: GGCCCAGGGGAGAGAATGCAGGTCAGAG | 6.61
12 | AAVS1 A59 (mixed) RNA: GCUGGGACUUGGCCAGACACUGGUUGUAGCUCCCUUUCUCAUUUCGGAAACGAAAUGAGAACCGUUGCUACAAUAAGGCCGUCUGAAAAGAUGUGCCGCAACGCUCUGCCCCUUAAAGCUUCUGCUUUAAGGGGCAUCGUUUAUUUUUUU DNA 1: GCTGGGACTTGGCCAGACACTGAGGTCCAG DNA 2: CTGGACCTCAGTGTCTGGCCAAGTCCCAGC | 16.7
13 | VEGFA V54 (mixed) RNA: GCUGUCCCCUCCUGAGCCCAUGGGUUGUAGCUCCCUUUCUCAUUUCGGAAACGAAAUGAGAACCGUUGCUACAAUAAGGCCGUCUGAAAAGAUGUGCCGCAACGCUCUGCCCCUUAAAGCUUCUGCUUUAAGGGGCAUCGUUUAUUUUUUU DNA 1: CTGTCCCCTCCTGAGCCCATGGGCAACCAT DNA 2: ATGGTTGCCCATGGGCTCAGGAGGGGACAG | 37
14 | AAVS1 A10 (mixed) RNA: GGGUCUGAGGGUGGAGGGACUGGUUGUAGCUCCCUUUCUCAUUUCGGAAACGAAAUGAGAACCGUUGCUACAAUAAGGCCGUCUGAAAAGAUGUGCCGCAACGCUCUGCCCCUUAAAGCUUCUGCUUUAAGGGGCAUCGUUUAUUUUUUU DNA 1: GGGTCTGAGGGTGGAGGGACTGGGGGCC DNA 2: GGCCCCCAGTCCCTCCACCCTCAGACCC | 30.1
15 | AAVS1 A46 (mixed) RNA: GAAGCCUGAGCGCCUCUCCUGGGGUUGUAGCUCCCUUUCUCAUUUCGGAAACGAAAUGAGAACCGUUGCUACAAUAAGGCCGUCUGAAAAGAUGUGCCGCAACGCUCUGCCCCUUAAAGCUUCUGCUUUAAGGGGCAUCGUUUAUUUUUUU DNA 1: AAGCCTGAGCGCCTCTCCTGGGCTTGCCAA DNA 2: TTGGCAAGCCCAGGAGAGGCGCTCAGGCTT | 14.9
16 | AAVS1 A3 (mixed) RNA: GCAGCGCAAAGUGACAAUGGCCGUUGUAGCUCCCUUUCUCAUUUCGGAAACGAAAUGAGAACCGUUGCUACAAUAAGGCCGUCUGAAAAGAUGUGCCGCAACGCUCUGCCCCUUAAAGCUUCUGCUUUAAGGGGCAUCGUUUAUUUUUUU DNA 1: GCAGCGCAAAGTGACAATGGCCAGGGCC DNA 2: GGCCCTGGCCATTGTCACTTTGCGCTGC | 7.81
17 | VEGFA V18 (mixed) RNA: GAGGGGGGUGCCGAGGACCGAAGGUUGUAGCUCCCUUUCUCAUUUCGGAAACGAAAUGAGAACCGUUGCUACAAUAAGGCCGUCUGAAAAGAUGUGCCGCAACGCUCUGCCCCUUAAAGCUUCUGCUUUAAGGGGCAUCGUUUAUUUUUUU DNA 1: AGGGGGGTGCCGAGGACCGAAGGGCACCAA DNA 2: TTGGTGCCCTTCGGTCCTCGGCACCCCCCT | 16.7
18 | VEGFA V60 (mixed) RNA: GAAGGGUGAGUCUCAGGCCACAGGUUGUAGCUCCCUUUCUCAUUUCGGAAACGAAAUGAGAACCGUUGCUACAAUAAGGCCGUCUGAAAAGAUGUGCCGCAACGCUCUGCCCCUUAAAGCUUCUGCUUUAAGGGGCAUCGUUUAUUUUUUU DNA 1: AAGGGTGAGTCTCAGGCCACAGGGACCCAA DNA 2: TTGGGTCCCTGTGGCCTGAGACTCACCCTT | 12.1
19 | AAVS1 A2 (mixed) RNA: GUCAGCAUAGGGUGGCAAAGCCCGUUGUAGCUCCCUUUCUCAUUUCGGAAACGAAAUGAGAACCGUUGCUACAAUAAGGCCGUCUGAAAAGAUGUGCCGCAACGCUCUGCCCCUUAAAGCUUCUGCUUUAAGGGGCAUCGUUUAUUUUUUU DNA 1: TCAGCATAGGGTGGCAAAGCCCAGGGCC DNA 2: GGCCCTGGGCTTTGCCACCCTATGCTGA | 14.1

Reference: publication PMC9433092, “Closely related type II-C Cas9 orthologs recognize diverse PAMs”
